Measured values as given in US10548996B2, “Hydrogels for localized radiotherapy” (Washington University, priority 2014, dated 2020).

Columns and labels:
[1] = In vitro release of fluorescence from chitosan hydrogels to the surrounding media; type: physicochemical; conditions: FIG. 5, all time points tested, up to two weeks
Procedure: To determine the release of large molecules from the hydrogels, the following experiment was conducted. The chitosan hydrogels with the best injectability properties were analyzed naïve or loaded with the alginate microparticles with the best encapsulation efficiency. The in vitro release studies were developed by using a large-size molecule such as albumin and a small-size molecule as cresyl violet to detect the efficacy in both encapsulation settings. Albumin is not detectable by fluorescence reader or spectrophotometer, thus FITC was labeled to albumin. […] Different time points were measured to analyze short and long-term release. At 0, 1, 2, 4, 8, and 24 h, for short-term release, and 0, 0.33, 1, 2, 3, 7, 14, 21, 28, 42 days for long-term release, samples from the PBS solution that surrounded the chitosan hydrogels were analyzed by fluorescence reader (Alb-FITC and FITC) at 485/516 nm or spectrophotometer (CV) at 595 nm. The % release was calculated as follows: % Release=(Chitosan hydrogel−Blank)/(Control−Blank)*100
To assess these concepts, the release of fluorescence to the surrounding media was tested from chitosan hydrogels containing free-fluorescein, fluorescien-conjugated to bovine serum albumin (FITC-Alb), and FITC-Alb encapsulated in calcium-alginate microparticles.

[2] = Release of radioactivity from implanted solid chitosan hydrogels to adjacent normal tissues (radiographic imaging); type: in vivo; conditions: FIG. 4; rats, non-encapsulated, loaded in solid chitosan hydrogel implant; Day-1 to Day-7

| Compound | relative release of fluorescence to the surrounding media [1] | radioactive leakage from the implant to adjacent normal tissues [2] |
| --- | --- | --- |
| FITC-Alb: fluorescien-conjugated to bovine serum albumin, in chitosan hydrogel | less than half of the relative release of fluorescein | – |
| CC(C)CCCC(C)C1CCC2C3CC(C[131I])C4=C(CCC(O)C4)C3CCC12C (centres unmarked) [^131I-nor-cholesterol] | – | radioactive leakage from the implant starting at Day-1 that becomes more evident at Day-7 |
